In patent publication US20220281960A1 (RAMOT AT TEL AVIV UNIVERSITY, published 2022):

Target: T1, maltose binding protein (UniProt P0AEX9 27-396 = MBP)
T1 construct: also called MBP; carrier protein
Assay: ELISA on coated MBP

B1: P4-36 (antibody, V domains shown)
VH: EVQLVESGGGLVQPGRSLRLSCTDSGFTFSEYALSWVRQAPGKGLEWVGFIRSKAYGGTTEYAASVKGRFTISRDDSKSVAYLQMNSLKTEDTAVYFCTGPRPYYDSSGYYPYYFDYWGQGTLVTVSS
VL: QSALTQPRSVSGSPGQSVTISCTGSRSDVGGYDYVSWYQQHPGRVPKLMIYDVTKRPSGVPDRFSGSRSGNTASLTISGLQADDEADYYCSSFAGSSTYVVFGGGTTLTVL
notes: also called mAb P4-36; clone 3 antibody P4-36
  binding result: no binding
